Data published in US20040126819A1.

Columns and labels:
[1] = target: GDNF receptors on E10 embryonic chick sympathetic neurons; test: steady-state saturation binding of 125I-GDNF to E10 embryonic chick sympathetic neurons, triplicates
[2] = target: GDNF receptors on E10 embryonic chick sympathetic neurons; test: saturation binding of 125I-GDNF to E10 chick sympathetic neurons, 4 C, filtration

B1: recombinant rat GDNF produced in Sf21 insect cells using a baculovirus expression system (ligand, UniProt Q07731 78-211, looked up)
chain: SPDKQAAALPRRERNRQAAAASPENSRGKGRRGQRGKNRGCVLTAIHLNVTDLGLGYETKEELIFRYCSGSCEAAETMYDKILKNLSRSRRLTSDKVGQACCRPVAFDDDLSFLDDSLVYHILRKHSAKRCGCI
modifications: labeled with Na-^125I by the chloramine-T method where used as tracer
**Q.** With B1 as the binder, how does the EC50 (read off the curve) [1] read?
**A.** The EC50 (read off the curve) was 400 pM.

**Q.** And the Kd [2]?
**A.** The Kd was 400 pM.
